Measurements reported in patent US20100143349A1 (Pfizer, published 2010).

What was measured:
hRAGE-Fc [1] = molecular target: T1, hRAGE-Fc (human, UniProt Q15109 23-342, biotin label in the selections and HTRF assays); assay: HTRF competition, scFv vs labelled parental XT-M4 (competitor) on hRAGE
T1 construct: extracellular domain; also called biotin labeled hRAGE-Fc; Biotin-labeled RAGE-Fc; not shown: Fc part
Description: (§1) Increases in binding to RAGE antigen were detected with the aid of a competition assay using parental XT-M4 antibody. Both phage display and ribosome display libraries were selected for affinity improved variants by incubating with biotin labeled hRAGE-Fc, recovering binding clones using streptavidin magnetic beads and washing away non binding variants. Sequential rounds of selection were carried on decreasing antigen concentrations to drive the preferential recovery of higher affinity variants. Clones recovered after selection were subsequently screening for improved binding to hRAGE-Fc using HTRF. This is an assay that measures the decrease in fluorescence upon binding of parental europium cryptate-labeled XT-M4 to RAGE in the presence of competing test scFv antibodies. In these assays, periplasmic preparations of scFv were prepared from bacterial cultures and added in increasing concentrations to a combination of parental antibody and antigen. The ability of the scFV to compete with parental XT-M4 antibody to bind to Biotin-labeled RAGE-Fc was determined. In the presence of avidin-XL665 complex labeled XT-M4 bound to biotinylated RAGE-FC was detected by Fluorescence. Increasing amounts of scFv that competed with the XT-M4 for binding to biotinylated-RAGE-Fc was detected as a decrease in fluorescence. A sequential process of screening was used to focus in on a smaller number of clones with the greatest competition in HTRF assay

hRAGE-Fc [2] = molecular target: T1, hRAGE-Fc; assay: IC50 of parental M4 scFv over IC50 of clone, HTRF competition
Description: as §1

hRAGE-Fc [3] = molecular target: T1, hRAGE-Fc; assay: HTRF competition, scFv vs labelled parental XT-M4 (competitor) on biotin hRAGE-Fc
Description: as §1

HU-RAGE-SA [4] = molecular target: T2, HU-RAGE-SA (human, UniProt Q15109 23-342); assay: BIAcore, 10 nM scFv-Fc over directly immobilized HU-RAGE-SA, 1:1 fit
T2 construct: extracellular domain; Directly immobilized on a CM5 chip (~100 RU); also called hRAGE-SA; soluble human streptavidin-tagged RAGE; not shown: streptavidin tag (SA)
T2 sequence (Q15109 23-342): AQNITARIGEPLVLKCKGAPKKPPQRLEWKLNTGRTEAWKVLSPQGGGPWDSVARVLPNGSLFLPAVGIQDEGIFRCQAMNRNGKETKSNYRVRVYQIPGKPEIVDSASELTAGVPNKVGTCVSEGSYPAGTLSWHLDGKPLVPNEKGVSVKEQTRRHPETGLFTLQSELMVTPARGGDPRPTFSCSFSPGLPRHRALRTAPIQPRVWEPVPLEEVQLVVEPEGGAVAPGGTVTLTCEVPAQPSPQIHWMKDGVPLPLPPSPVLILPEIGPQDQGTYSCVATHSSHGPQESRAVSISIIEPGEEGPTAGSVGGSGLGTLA

hRAGE-Fc [5] = molecular target: T1, hRAGE-Fc; assay: IC50 of parental M4 scFv-Fc over IC50 of clone, HTRF competition
HU-RAGE-SA [6] = molecular target: T2, HU-RAGE-SA; assay: BIAcore kd against parental M4 scFv-Fc
[7] = molecular target: T3, human RAGE expressed on CHO cells (human, UniProt Q15109 23-404); assay: cell ELISA on CHO-RAGE cells, A450 corrected for control CHO cells
T3 construct: whole, on cells; also called CHO-RAGE cells; cell surface expressed human RAGE
T3 sequence (Q15109 23-404): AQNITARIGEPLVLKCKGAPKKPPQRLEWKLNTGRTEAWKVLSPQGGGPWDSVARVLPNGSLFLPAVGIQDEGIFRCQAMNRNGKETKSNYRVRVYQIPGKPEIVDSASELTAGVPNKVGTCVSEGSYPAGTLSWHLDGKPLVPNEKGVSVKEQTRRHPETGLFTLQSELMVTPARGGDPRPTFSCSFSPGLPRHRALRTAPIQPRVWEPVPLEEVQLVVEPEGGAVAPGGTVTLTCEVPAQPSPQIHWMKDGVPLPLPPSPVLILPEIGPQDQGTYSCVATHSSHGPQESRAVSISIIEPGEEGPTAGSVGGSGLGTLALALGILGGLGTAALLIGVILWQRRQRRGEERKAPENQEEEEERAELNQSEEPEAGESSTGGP
Description: Stably transfected Chinese Hamster Ovary (CHO) cells were engineered to express murine and human RAGE full length proteins. The murine and human RAGE cDNAs were cloned into the mammalian expression vector pSMED, linearized and transfected into CHO cells using lipofectin methods (Kaufman, R. J., 1990, Methods in Enzymology 185:537-66; Kaufman, R. J., 1990, Methods in Enzymology 185:487-511; Pittman, D. D. et al., 1993, Methods in Enzymology 222: 236). Cells were further selected in 20 nM methotrexate and cell extracts were harvested from individual clones and analyzed by SDS sodium dodecyl sulfate-polyacrylamide gel electrophoresis (SDS-PAGE) and Western blotting to confirm expression. […] Absorbance 450 nm values were corrected for the same clones binding to control CHO cells not expressing RAGE. EC50 values were calculated after curve fitting using GraphPad prism and are expressed in μg/ml.

T1 sequence (Q15109 23-342): as the sequence (Q15109 23-342) above

B1: 6B2 scFv (scFv)
scFv: DIQMTQSPSSLSASVGDRVTITCRASQDVGIYVNWFQQKPGKAPRRLIYRATNLADGVPSRFSGSRSGTDFTLTISSLQPEDFATYYCLEFDEHPLTFGGGTKVEIKDGGGSGGGGSGGGGSSEVQLVESGGGLVQPGGSLRLSCAASGFTFNNYWMTWVRQAPGKGLEWVASIDNSGDNTYYPDSVKDRFTISRDNAKNSLYLQMNSLRAEDTAVYYCARGGDIRVGLDVWGQGTLVTVSS
IC50 (hRAGE-Fc [1]): 1.77 nM | Fold gain scFv (hRAGE) (hRAGE-Fc [2]): 18.6 fold | IC50 (hRAGE-Fc [3]): 1.77 nM

B2: 6C2 scFv (scFv)
scFv: DIQMTQSPSSLSASVGDRVTITCRASQDVGIYVNWFQQKPGKAPRRLIYRATNLADGVPSRFSGSRSGTDFTLTISSLQPEDFATYYCLEFDEHPLTFGGGTKVEIKDGGGSGGGGSGGGGSSEVQLVESGGGLVQPGGSLRLSCAASGFTFNNYWMTWVRQAPGKGLEWVASIDNSGDNTYYPDSVKDRFTISRDNAKNSLYLQMNSLRAEDTAVYYCARGGDIKVSLDRWGQGTLVTVSS
IC50 (hRAGE-Fc [1]): 0.73 nM | Fold gain scFv (hRAGE) (hRAGE-Fc [2]): 48.2 fold | IC50 (hRAGE-Fc [3]): 0.731 nM

B3: 10H6 scFv-Fc fusion (Fc fusion)
chain: DIQMTQSPSSLSASVGDGVTITCQASQDVGIYVNWFQQKPGKAPRRLIYRATNLADGVPSRFSGSRSGTDFTLTISSLQPEDFATYYCLEFDEHPLTFGGGTKVEIKNGGGSGGGGSGGGGSSEVQLVESGGGLVQPGGSLRLSCAASGFTFNNYWMTWVRQAPGKGLEWVASIDNSGDNTYYPDSVKDRFTISRDNAKNSLYLQMNSLRAEDTAVYYCARGGDITTGLDYWGQGTLVTESS
notes: also called 10H6 (a); not shown: wild-type human IgG Fc (hinge and constant domains)
koff (HU-RAGE-SA [4]): 0.00116 s⁻¹ | Fold gain scFv-Fc (hRAGE) (hRAGE-Fc [5]): 13.7 fold | Fold change in kd (HU-RAGE-SA [6]): 25.3 fold

B4: 6G4 scFv (scFv)
scFv: DIQMTQSPSSLSASVGDRVTITCRASQDVGIYVNWFQQKPGKAPRRLIYRATNLADGVPSRFSGSRSGTDFTLTISSLQPEDFATYYCLEFDEHPLTFGGGTKVEIKDGGGSGGGGSGGGGSSEVQLVESGGGLVQPGGSLRLSCAASGFTFNNYWMTWVRQAPGKGLEWVASIDNSGDNTYYPDSVKDRFTISRDNAKNSLYLQMNSLRAEDTAVYYCARGGDILDSLHFWGQGTLVTVSS
IC50 (hRAGE-Fc [1]): 2.03 nM | Fold gain scFv (hRAGE) (hRAGE-Fc [2]): 16.2 fold | IC50 (hRAGE-Fc [3]): 2.03 nM

B5: 2E6 scFv-Fc fusion (Fc fusion)
chain: DIQMTQSPSSLSASVGDRVTITCRASQDVGIYVNWFQQKPGKAPRRLIYRATNLADGVPSRFSGSRSGTDFTLTISSLQPEDFATYYCLEFDEHPLTFGGGTKVEIKDGGGSGGGGSGGGGNSEVQLVESGVGLVQPGGSLRLSCAASGFTFNNYWMTWVRQAPGKGLEWVASIDNSGDNTYYPDSVKDRFTISRDNAKNSLYLQMNSLRAEDTAVYYCARGGDITNGLDYWGQGTLVTVSS
notes: also called 2E6 (c); not shown: wild-type human IgG Fc (hinge and constant domains)
EC50 [7]: 0.113 mg/L | koff (HU-RAGE-SA [4]): 0.00114 s⁻¹ | Fold gain scFv-Fc (hRAGE) (hRAGE-Fc [5]): 6.9 fold | Fold change in kd (HU-RAGE-SA [6]): 25.7 fold

B6: 3D2 scFv-Fc fusion (Fc fusion)
chain: DIQMTQSPSSLSASVGDRVTITCRASQDVGIYVNWFQQKPGKAPRRLIYRATNLADGVPSRFSGSRSGTDFTLTISSLQPEDFATYYCLEFDEHPLTFGGGTKVEIKDGGGSGGGGSGGGGSSEVQLVESGGGLVQPGGSLRLSCAASGFTFNNYWMTWVRQAPGKGLEWVASIDNSGDNTYYPDSVKDRFTISRDNAKNSLYLQMNSLRAEDTAVYYCARGGDIRVSLDHWGQGTLVTVSS
notes: not shown: wild-type human IgG Fc (hinge and constant domains)
EC50 [7]: 0.136 mg/L | koff (HU-RAGE-SA [4]): 0.00391 s⁻¹ | Fold gain scFv-Fc (hRAGE) (hRAGE-Fc [5]): 31.3 fold | Fold change in kd (HU-RAGE-SA [6]): 7.4 fold

B7: 6B6 scFv (scFv)
scFv: DIQMTQSPSSLSASVGDRVTITCRASQDVGIYVNWFQQKPGKAPRRLIYRATNLADGVPSRFSGSRSGTDFTLTISSLQPEDFATYYCLEFDEHPLTFGGGTKVEIKDGGGSGGGGSGGGGSSEVQLVESGGGLVQPGGSLRLSCAASGFTFNNYWMTWVRQAPGKGLEWVASIDNSGDNTYYPDSVKDRFTISRDNAKNSLYLQMNSLRAEDTAVYYCARGGDIIISLDWWGQGTLVTVSS
IC50 (hRAGE-Fc [1]): 0.65 nM | Fold gain scFv (hRAGE) (hRAGE-Fc [2]): 50.7 fold | IC50 (hRAGE-Fc [3]): 0.645 nM

B8: 3B2 scFv-Fc fusion (Fc fusion)
chain: DIQMTQSPSSLSASVGDRVTITCRASQDVGIYVNWFQQKPGKAPRRLIYRATNLADGVPSRFSGSRSGTDFTLTISSLQPEDFATYYCLEFDEHPLTFGGGTKVEIKDGGGSGGGGSGGGGSSEVQLVESGGGLVQPGGSLRLSCAASGFTFNNYWMTWVRQAPGKGLEWVASIDNSGDNTYYPDSVKDRFTISRDNAKNSLYLQMNSLRAEDTAVYYCARGGDILVGLDYWGQGTLVTVSS
notes: as for B6
EC50 [7]: 0.0335 mg/L | koff (HU-RAGE-SA [4]): 0.000684 s⁻¹ | Fold gain scFv-Fc (hRAGE) (hRAGE-Fc [5]): 34.2 fold | Fold change in kd (HU-RAGE-SA [6]): 42.8 fold

B9: 5H3 scFv-Fc fusion (Fc fusion)
chain: DIQMTQSPSSLSASVGDRVTITCRASQDVGIYVNWFQQKPGKAPRRLIDRATNLADGVPSRFSGSRSGTDFTLTISSLQPEDFATYYCLEFDEHPLTFGGGTKVEIKDGGGSGGGGSGGGGSSEVLLVESGGGLVQPGGSLRLSCAASGFTFNNYWMTWVRQAPGKGLEWVASIDNSGDNTYYPDSVKDRFTISRDNAKNSLYLQMNSLRAEDTAVYYCARGGDITTGFDYWGQGTLVTVSS
notes: as for B6
koff (HU-RAGE-SA [4]): 0.0826 s⁻¹ | Fold gain scFv-Fc (hRAGE) (hRAGE-Fc [5]): 6.1 fold | Fold change in kd (HU-RAGE-SA [6]): 0.35 fold

B10: 6C3 scFv (scFv)
scFv: DIQMTQSPSSLSASVGDRVTITCRASQDVGIYVNWFQQKPGKAPRRLIYRATNLADGVPSRFSGSRSGTDFTLTISSLQPEDFATYYCLEFDEHPLTFGGGTKVEIKDGGGSGGGGSGGGGSSEVQLVESGGGLVQPGGSLRLSCAASGFTFNNYWMTWVRQAPGKGLEWVASIDNSGDNTYYPDSVKDRFTISRDNAKNSLYLQMNSLRAEDTAVYYCARGGDITLGLDVWGQGTLVTVSS
IC50 (hRAGE-Fc [1]): 1.53 nM | Fold gain scFv (hRAGE) (hRAGE-Fc [2]): 21.5 fold | IC50 (hRAGE-Fc [3]): 1.53 nM

B11: 1G6 scFv-Fc fusion (Fc fusion)
chain: DIQMTQSPSSLSASVGDRVTITCRASQDVGFYVNWFQQKPGKAPRRLIYRATNLADGVPSRFSGSRSGTDFTLTISSLQPEDFATYYCLEFDEHPLTFGGGTKVEIKDGGGSGGGGSGGGGSSEVQLVESGGGLVQPGGSLRLSCAASGFTFNNYWMTWVRQAPGKGLEWVASIDNSGDNTYYPDSVKDRFTISRDNAKNSLYLQMNSLRAEDTAVYYCARGGDITNGFDYWGQGTLVTVSS
notes: as for B6
EC50 [7]: 0.188 mg/L | koff (HU-RAGE-SA [4]): 0.000438 s⁻¹ | Fold gain scFv-Fc (hRAGE) (hRAGE-Fc [5]): 6.4 fold | Fold change in kd (HU-RAGE-SA [6]): 66.9 fold

B12: 3B3 scFv-Fc fusion (Fc fusion)
chain: DIQMTQSPSSLSASVGDRVTITCRASQDVGFYVNWFQQKPGKAPRRLIYRATNLADGVPSRFSGSRSGTDFTLTISSLQPEDFATYYCLEFDEHPLTFGGGTKVEIKDGGGSGGGGSGGGGSSEVQLVESGGGLVQPGGSLRLSCAASGFTFNNYWMTWVRQAPGKGLEWVASIDNSGDNTYYPDSVKDRFTISRDNAKNSLYLQMNSLRAEDTAVYYCARGGDITTGLDYWGQGTLVTVSS
notes: as for B6
EC50 [7]: 0.541 mg/L | koff (HU-RAGE-SA [4]): 0.00649 s⁻¹ | Fold gain scFv-Fc (hRAGE) (hRAGE-Fc [5]): 8.8 fold | Fold change in kd (HU-RAGE-SA [6]): 4.5 fold

B13: 3A6 scFv-Fc fusion (Fc fusion)
chain: DIQMTQSPSSLSASVGDRVTITCRASQDVGIYVNWFQQKPGKAPRRLIYRATNLADGVPSRFSGSRSGTDFTLTISSLQPEDFATYYCLEFDEHPLTFGGGTKVEIKDGGGSGGGGSGGGGSSEVQLVESGGGLVQPGGSLRLSCAASGFTFNNYWMTWVRQAPGKGLEWVASIDNSGDNTYYPDSVKDRFTISRDNAKNSLYLQMNSLRAEDTAVYYCARGGDILVSLDVWGQGTLVTVSS
notes: as for B6
EC50 [7]: 0.0673 mg/L | koff (HU-RAGE-SA [4]): 0.000867 s⁻¹ | Fold gain scFv-Fc (hRAGE) (hRAGE-Fc [5]): 9.9 fold | Fold change in kd (HU-RAGE-SA [6]): 33.8 fold
